Data from the nanobody polyreactivity screen of Harvey et al. (2022).

Experiment: yeast display, Sf9 membrane polyspecificity reagent, FACS + sequencing; frameworks hold sequencing errors
Procedure, shortened: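 Galactose-induced (36–48 hours) yeast carrying a synthetic nanobody display library were exposed to 10% biotinylated, detergent-solubilized Sf9 membrane reagent at 4 °C for 1 hour. FACS followed streptavidin microbead enrichment, using low and high (top ~1%) gates for expression (anti-HA) and reagent binding (streptavidin). Colony PCR, MiSeq 2 × 250 sequencing and CDR-length filtering followed. Labels for polyreactivity reflect the gate of origin.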

| Sequence | polyreactivity (PSR sort gate) |
| --- | --- |
| QVQLVESVGGLVQAGGSLRLSCAASGRIFHWYAMGWYRQAPGKERELVAAIRWTGGSTYYADSVKGRFTISRDNAKNTVYLQMNSLKPEDTAVYYCAAKGYTGIFYEMDYWGQGTQVTVSS | low polyreactivity |
| QVQLVESVGGLVQAGGSLRLSCAASGRIFTSYAMGWYRQAPGKERELVAAIRFNGDSTYYADSVKGSFTISRDNAKNTVYLQMNSLKPEDTAVYYCAASRYRGSFRYTEYYWGQGTQVTVSS | high polyreactivity |
| QVQLVESVGGLVQAGGSLRLSCAASGRIFVNAMGWYRPAPGKESEVVAAINTRGGSTYYADSVKGRFTISRDNAKNTVYLQLNSLKPEDTAVYYCAARFYTSSRYNYWGQGTQGTVSS | high polyreactivity |
| QVQLVESVGGLVQAGGSLRLSCAASGRIFWKYTMGWYRQAPGKERELVAAIRSAGGSTYYADSVKGRFTISRDNAKNTVYLQMNSLKPEDTAVYYCAAEPSQRYPLSGYYYWGQGTQVTVSS | low polyreactivity |
| QVQLVESVGGLVQAGGSLRLSCAASGRIFYKNVMGWYRQAPRKERELVAAISTSTGRTYYADSVNGRFTISRDNAKNTVYLQMNSLKPEDTAVYYCNAVRGLTNGVLYRYDYWGQGTQVTVSS | high polyreactivity |
| QVQLVESVGGLVQAGGSLRLSCAASGRIFYNYVMGWYRQAPGKERELVAAISSDGGRTYYADSVKGRFTISRDNAKNTVYLQMNSLKPEDTAVYYCAAEWPYGGNGPGHTYEYWGQGTQVTVSS | high polyreactivity |
| QVQLVESVGGLVQAGGSLRLSCAASGRIIRWYAMGWYRQAPGKERELVAAISGSGGSTYYADSVKGRFTISRDNAKNTVYLQMNSLKPEDTAVYYGAAGYYLRRYYYWGQGTQVTVSS | high polyreactivity |
| QVQLVESVGGLVQAGGSLRLSCAASGRTFGHYAMGWYRQEPGKERELVAAITSRGGSTNYADSVKGRFTISRDNAKNTVYLQMNSLKPEDTAVYYCAADTLIPDYSATFGYWGEGTQVTVSS | high polyreactivity |
| QVQLVESVGGLVQAGGSLRLSCAASGRTFRAYAMGWYRQEPGKERELVAAIRWGGGRTYYADSVKGRFTISRDNAKYTVYLQMNSLKPEDTAVYYCAADRTYDYDYWGQGTLVTVSS | high polyreactivity |
| QVQLVESVGGLVQAGGSLRLSCAASGRTFWWYTMGWYRQAPGKERELVAVISSTGGRTYYADSVKGSFTISRDNAKNTVYLQMNSLKPEDTAVYYCAAEYVSAKWEYGYWGQGTQVTVSS | low polyreactivity |
| QVQLVESVGGLVQAGGSLRLSCAASGSIFADYAMGWYRQAPGKERELVAAMTGSGGRTYYADSVKGRFTISRDNAKNTVYLHMNSLKPEDTAVYYCAAYQVGWDPYPRYDYWGQGTQVTVSS | low polyreactivity |
| QVQLVESVGGLVQAGGSLRLSCAASGSIFDYNGMGRYRQAPGKERELVATITLSTARTYYADSVKGRFTISRDNAKNTVYLQMNSLKPEDTAVYYCATRYPKFRRRNYWGQGTQVTVSS | high polyreactivity |
| QVQLVESVGGLVQAGGSLRLSCAASGSIFFTYTMGWYRQAPGKERELVAAISSGGITNYADSVKGRFTISRDNAKKTVYFQMNSLKPEDTAVYYCAVDGGEFSSYGYWGQGTQVTVSS | low polyreactivity |
| QVQLVESVGGLVQAGGSLRLSCAASGSIFQPYAMGWYRHAPGKEREFVAAISRSGGITYYADSVKGRFTISRDNAKNTVYLQMNSLKPEDTAVYYCATGRQVVRSYSEGDYCGQGTQVTVSS | low polyreactivity |
| QVQLVESVGGLVQAGGSLRLSCAASGSIFSYYAMGWYRQAPGKERELVAAITISGSSTYYADSVKGRFTISRDNAKNTVYLQMNSLKPEDTAVYYCNARTIRNWSGQHIYDYWGQGTQVTVSS | high polyreactivity |
| QVQLVESVGGLVQAGGSLRLSCAASGSIFVKYAMGWYRQAPGKECEMVPAISGSGGSTYYADSVKGRFTISRDNAKNTVYLQMNSLKQEDTAVYYCAADDYFYAGTLPGWWYDYWGQGTQVTVSS | low polyreactivity |
| QVQLVESVGGLVQAGGSLRLSCAASGSIFVRNAMGWYRQAPGKERELVAGISRSGGSTNYADSVKGRFTISRDNAKNTVYLQMNSLKPEDTAVYYCAASRLVWVGRPWYQVRGDYWGQGTHVTVSS | high polyreactivity |
